Earlier results, collected in patent US12251426B2 (priority 2020, dated 2025).

B1: Bovine lactoferrin: water-soluble protein obtainable through bovine milk (protein, UniProt P24627 20-708, looked up)
Lactotransferrin: APRKNVRWCTISQPEWFKCRRWQWRMKKLGAPSITCVRRAFALECIRAIAEKKADAVTLDGGMVFEAGRDPYKLRPVAAEIYGTKESPQTHYYAVAVVKKGSNFQLDQLQGRKSCHTGLGRSAGWIIPMGILRPYLSWTESLEPLQGAVAKFFSASCVPCIDRQAYPNLCQLCKGEGENQCACSSREPYFGYSGAFKCLQDGAGDVAFVKETTVFENLPEKADRDQYELLCLNNSRAPVDAFKECHLAQVPSHAVVARSVDGKEDLIWKLLSKAQEKFGKNKSRSFQLFGSPPGQRDLLFKDSALGFLRIPSKVDSALYLGSRYLTTLKNLRETAEEVKARYTRVVWCAVGPEEQKKCQQWSQQSGQNVTCATASTTDDCIVLVLKGEADALNLDGGYIYTAGKCGLVPVLAENRKSSKHSSLDCVLRPTEGYLAVAVVKKANEGLTWNSLKDKKSCHTAVDRTAGWNIPMGLIVNQTGSCAFDEFFSQSCAPGADPKSRLCALCAGDDQGLDKCVPNSKEKYYGYTGAFRCLAEDVGDVAFVKNDTVWENTNGESTADWAKNLNREDFRLLCLDGTRKPVTEAQSCHLAVAPNHAVVSRSDRAAHVKQVLLHQQALFGKNGKNCPDKFCLFKSETKNLLFNDNTECLAKLGGRPTYEEYLGTEYVTAIANLKKCSTSPLLEACAFLTR
water solubility: water-soluble
